Results published in the supplement of paper PMC10567573.

B1: PTPN9 (parent)
chain: TQHLPRECLPENLGGYVKIDLATW
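Note: lentivirally expressed fusions sorted by FACS into six bins by GFP to DsRed ratio, PSI derived from sequencing read proportions per bin multiplied by bin number.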

Variants of: B1
Assay: protein stability index of a GFP-peptide fusion (GPS, HEK-293T) (PSI 1-6); higher = more stable
Conditions: c terminus: a fixed tail appended
With TQHLPRECLPENLGGYVKSDLATW [I19S] the protein stability index was 2.76. Variant TQHLPRECLPENLGGYVKIDDATW [L21D] has a protein stability index of 3.46. TQHLPRECLPENLGGYVKIDRATW [L21R] gave a protein stability index of 2.97. TQHLPRECLPENLGGYVKIDEATW [L21E] showed a protein stability index of 3.27. For TQHLPRECLPENLGGYVKIDMATW [L21M], the protein stability index was 1.88. For TQHLPRECLPENLGGYVKIDPATW [L21P], the protein stability index was 2.78. Variant TQHLPRECLPENLGGYVKIDQATW [L21Q] has a protein stability index of 2.96. Work on TQHLPRECLPENLGGYVKIDHATW [L21H] yielded a protein stability index of 2.17. TQHLPRECLPENLGGYVKIDFATW [L21F] showed a protein stability index of 1.76. TQHLPRECLPENLGGYVKIDWATW [L21W] showed a protein stability index of 1.76. Variant TQHLPRECLPENLGGYVKIDTATW [L21T] has a protein stability index of 2.27. Variant TQHLPRECLPENLGGYVKIDIATW [L21I] has a protein stability index of 1.65. Work on TQHLPRECLPENLGGYVKIDVATW [L21V] yielded a protein stability index of 2.36. Work on TQHLPRECLPENLGGYVKIDNATW [L21N] yielded a protein stability index of 2.63. TQHLPRECLPENLGGYVKIDKATW [L21K] showed a protein stability index of 3.35. With TQHLPRECLPENLGGYVKIDYATW [L21Y] the protein stability index was 1.97. Variant TQHLPRECLPENLGGYVKIDGATW [L21G] has a protein stability index of 2.85. Work on TQHLPRECLPENLGGYVKIDCATW [L21C] yielded a protein stability index of 2.06. TQHLPRECLPENLGGYVKIDAATW [L21A] gave a protein stability index of 2.09. Variant TQHLPRECLPENLGGYVKIDSATW [L21S] has a protein stability index of 2.73. Work on TQHLPRECLPENLGGYVKIDLATL [W24L] yielded a protein stability index of 2.12. Variant TQHLPRECLPENLGGYVKIDLATA [W24A] has a protein stability index of 2.84. In the case of TQHLPRECLPENLGGYVKIDLATP [W24P], the protein stability index is reported as 2.86. For TQHLPRECLPENLGGYVKIDLATD [W24D], the protein stability index was 3.88. TQHLPRECLPENLGGYVKIDLATI [W24I] showed a protein stability index of 1.94. Work on TQHLPRECLPENLGGYVKIDLATF [W24F] yielded a protein stability index of 1.8. With TQHLPRECLPENLGGYVKIDLATG [W24G] the protein stability index was 3.38. Variant TQHLPRECLPENLGGYVKIDLATV [W24V] has a protein stability index of 2.06. For TQHLPRECLPENLGGYVKIDLATH [W24H], the protein stability index was 2.66. TQHLPRECLPENLGGYVKIDLATK [W24K] showed a protein stability index of 3.59. With TQHLPRECLPENLGGYVKIDLATT [W24T] the protein stability index was 3. TQHLPRECLPENLGGYVKIDLATS [W24S] gave a protein stability index of 3.06. Variant TQHLPRECLPENLGGYVKIDLATN [W24N] has a protein stability index of 3.51. TQHLPRECLPENLGGYVKIDLATQ [W24Q] gave a protein stability index of 3.13. In the case of TQHLPRECLPENLGGYVKIDLATY [W24Y], the protein stability index is reported as 1.91. TQHLPRECLPENLGGYVKIDLATM [W24M] gave a protein stability index of 2.05. TQHLPRECLPENLGGYVKIDLATR [W24R] gave a protein stability index of 2.61. In the case of TQHLPRECLPENLGGYVKIDLATE [W24E], the protein stability index is reported as 4.07. Work on TQHLPRECLPENLGGYVKIDLATC [W24C] yielded a protein stability index of 2.28. TQHLPRECLPENLGGYVKIALATW [D20A] showed a protein stability index of 2.07. Work on TQHLPRECLPENLGGYVKIVLATW [D20V] yielded a protein stability index of 2.73. In the case of TQHLPRECLPENLGGYVKISLATW [D20S], the protein stability index is reported as 1.92. For TQHLPRECLPENLGGYVKICLATW [D20C], the protein stability index was 1.94. In the case of TQHLPRECLPENLGGYVKIRLATW [D20R], the protein stability index is reported as 1.9. For TQHLPRECLPENLGGYVKIILATW [D20I], the protein stability index was 2.01. With TQHLPRECLPENLGGYVKIMLATW [D20M] the protein stability index was 1.69. In the case of TQHLPRECLPENLGGYVKILLATW [D20L], the protein stability index is reported as 1.66. With TQHLPRECLPENLGGYVKIYLATW [D20Y] the protein stability index was 2.68. TQHLPRECLPENLGGYVKIPLATW [D20P] showed a protein stability index of 1.69. For TQHLPRECLPENLGGYVKIFLATW [D20F], the protein stability index was 2.58. In the case of TQHLPRECLPENLGGYVKINLATW [D20N], the protein stability index is reported as 1.78. TQHLPRECLPENLGGYVKIELATW [D20E] gave a protein stability index of 1.67. Work on TQHLPRECLPENLGGYVKITLATW [D20T] yielded a protein stability index of 2.51. For TQHLPRECLPENLGGYVKIKLATW [D20K], the protein stability index was 1.94. TQHLPRECLPENLGGYVKIHLATW [D20H] showed a protein stability index of 2.68. Variant TQHLPRECLPENLGGYVKIQLATW [D20Q] has a protein stability index of 1.6. Variant TQHLPRECLPENLGGYVKIWLATW [D20W] has a protein stability index of 3.09. For TQHLPRECLPENLGGYVKIGLATW [D20G], the protein stability index was 1.78. For TQHLPRECLPENLGGYVKIDLAVW [T23V], the protein stability index was 3.6. In the case of TQHLPRECLPENLGGYVKIDLAEW [T23E], the protein stability index is reported as 2.73. For TQHLPRECLPENLGGYVKIDLAKW [T23K], the protein stability index was 2.38. In the case of TQHLPRECLPENLGGYVKIDLAYW [T23Y], the protein stability index is reported as 1.71. Work on TQHLPRECLPENLGGYVKIDLAMW [T23M] yielded a protein stability index of 1.83. For TQHLPRECLPENLGGYVKIDLAGW [T23G], the protein stability index was 1.9. TQHLPRECLPENLGGYVKIDLAWW [T23W] showed a protein stability index of 2.94. With TQHLPRECLPENLGGYVKIDLADW [T23D] the protein stability index was 2.37. With TQHLPRECLPENLGGYVKIDLARW [T23R] the protein stability index was 1.89. Work on TQHLPRECLPENLGGYVKIDLANW [T23N] yielded a protein stability index of 2.06. Variant TQHLPRECLPENLGGYVKIDLAIW [T23I] has a protein stability index of 2.02. Variant TQHLPRECLPENLGGYVKIDLACW [T23C] has a protein stability index of 1.38. Variant TQHLPRECLPENLGGYVKIDLAQW [T23Q] has a protein stability index of 2.58. With TQHLPRECLPENLGGYVKIDLAFW [T23F] the protein stability index was 2.17. Work on TQHLPRECLPENLGGYVKIDLAAW [T23A] yielded a protein stability index of 1.83. TQHLPRECLPENLGGYVKIDLAPW [T23P] gave a protein stability index of 1.99. In the case of TQHLPRECLPENLGGYVKIDLALW [T23L], the protein stability index is reported as 1.76. Variant TQHLPRECLPENLGGYVKIDLASW [T23S] has a protein stability index of 2.02. In the case of TQHLPRECLPENLGGYVKIDLAHW [T23H], the protein stability index is reported as 2.09. Variant TQHLPRECLPENLGGYVKIDLTTW [A22T] has a protein stability index of 1.9. TQHLPRECLPENLGGYVKIDLGTW [A22G] gave a protein stability index of 1.64. With TQHLPRECLPENLGGYVKIDLLTW [A22L] the protein stability index was 3.29. With TQHLPRECLPENLGGYVKIDLMTW [A22M] the protein stability index was 1.65. With TQHLPRECLPENLGGYVKIDLHTW [A22H] the protein stability index was 1.78. Variant TQHLPRECLPENLGGYVKIDLRTW [A22R] has a protein stability index of 1.23. With TQHLPRECLPENLGGYVKIDLSTW [A22S] the protein stability index was 1.72. Work on TQHLPRECLPENLGGYVKIDLKTW [A22K] yielded a protein stability index of 2.08. In the case of TQHLPRECLPENLGGYVKIDLYTW [A22Y], the protein stability index is reported as 2.21. TQHLPRECLPENLGGYVKIDLPTW [A22P] gave a protein stability index of 2.49. TQHLPRECLPENLGGYVKIDLETW [A22E] showed a protein stability index of 2.35. TQHLPRECLPENLGGYVKIDLFTW [A22F] showed a protein stability index of 2.43. In the case of TQHLPRECLPENLGGYVKIDLDTW [A22D], the protein stability index is reported as 3.18. Variant TQHLPRECLPENLGGYVKIDLVTW [A22V] has a protein stability index of 2.08. In the case of TQHLPRECLPENLGGYVKIDLCTW [A22C], the protein stability index is reported as 1.92. Variant TQHLPRECLPENLGGYVKIDLNTW [A22N] has a protein stability index of 2.35. For TQHLPRECLPENLGGYVKIDLWTW [A22W], the protein stability index was 2.09. With TQHLPRECLPENLGGYVKIDLITW [A22I] the protein stability index was 1.87. For TQHLPRECLPENLGGYVKIDLQTW [A22Q], the protein stability index was 2.01.
